A protein production outcome set (Wang et al. 2014)

Experiment: label from the status in PepcDB records

Sequence | protein production
MDKPALPIYLVVHFSYGDVTFPLQGRSYWTVGRSQDNDLVIRDNCISRNHAILQATEEDTFLLIDLGSRNGTFVNGRRVSVPIAIQDQDKITFGKTEAQFYSDQNGTPSGLLRNPAEWDTQTNVLHERRLITVLVADMRNFTGMAQQVEEELLSMLIGNWFRQAGHILREAGSWVDKYIGDAVMAIWFHGYNEATPAEIIQILHAVNRLQAMTAKLNQKYELPFPLRIGTGINTGYAMVGNTGSGDHPDYTAIGDTVNAAFRLESATKQAHFDLAMSEKTFSYLQDLPQWSATVQQHTIELKGYTNPITIYGLPFATLGTLLDHTSLEDTTPASEGP | failed
MVAARPAERSGDPAAVRVPVPSAWWVLIGGVIGLFASMTLTVEKVRILLDPIYVPSCNVNPIVSCGSVMTTPQASLLGFPNPLLGIAGFTVVVVTGVLAVAKVPLPRWYWIGLAVGILVGVAFVHWLIFQSLYRIGALCPYCMVVWAVIATLLVVVASIVFGPMRENRGSQERVGARLLYQWRWSLATLWFTTVFLLIMVRFWDYWSTLI | failed
MVSVNLPWELVEEILCRVPPQSLVKFRTVCKQWNSLFDDNKFVNDHFVQSQPQLIFRTESKIYSVAVNFKGPRIEVHELPLAIPGLKSEMPIRLHDYVDCDGLLFCTSYFNGVLIWNPWLRQTRFFPSIHRYPVTYDIGYDNKKQYKMLDYYKCEGDSSIKSIIYEIGLYSKKVKDLESDSTWSIFQSNSVSLNGTLYWAGVDVNNGIFIRSFSFSTEKPRTFCSLPFMYDDDNVLALAVFRKDRLSLLNLCNKTSEIKIWLTKNNINDREVGLEEDVVWINLMTVLIPNFPKFSFYWYNRPDLTYFLDNDDAKRLVICCYDETDQAYIYIVKGDMFKKIKIDQYEVLSDYSRPHFHTYIPSLVRPSRVKEDNKN | failed
EEKPCGFPHVENGRIAQYYYTFKSFYFPMSIDKKLSFFCLAGYTTESGRQEEQTTCTTEGWSPEPRCFKKCTKPDLSNGYISDVK | failed
MSPTHKPMPEPTEVFTLPRWKITRWLTDTDRDVPTDIKRALIGSLFGTLSIFVGGVVNTLLVAALIAWHIQRPAFFAWFGLECLICIARISILVSARRRARAARSTHTDLHLALSLAWAFSVGLGTYLSITSGNWLAAALACLSSAAMIGGICFRNFGAPRMSGLMILLALGPCCLGAIVAREPLFLLTLIQLPVYVASMTSASFRMHAMLVATMQSERENAHRARHDSMTGLLNRGSLLAEIRATMECNAISPLRSALLYLDLDGFKRINDVHGHGCGDELLQQVADRMRATVPEGTHVSRIGGDEFVILLNLHESDDVQVLAQRLLRDIAVPYLLANGETVAIGVSIGITHISPNGQSADAVLNVADRALYVAKARGKGCFHFSEAVQAL | failed
MKRLYKAMFIVFILLVLMFASQQGLFEHVTNSNWVAHFIKAEGNYALMALLAVGALFTAVGGPRQVIAFVFGFALGGIYGGLFSTLAALLGCVLVFYTARLTIRSSLQRRFGHRLQKFEALIIHRTWLKVLMIRLLPVGSNLLTNLFAGATHISPGGFLFGSMLGYLPQMLIFSFAGAGIGLADHNQLWISIGLFIVSSLIGAYLYRSSLRKQVDELEH | failed
MFRWFIAAIEDVYLPVPVMHLLTSNFAPFPWQHLDYTVVQLTKQDSNCLQALFERCTDFFNLTTGQPPASTAAEAEFVDVPAGKTPEDLHVFGLHHPQKGLIGTIIAVQDYPEAATWWIGTMLIDPVYRSQGVGSAFYQAFERWLAAQGVTGIELCAIASNTSGRAFWQRMGFEEIRQTPSRSFGQRHHIAHVYRRCLILLTRRAEFESYDPLNSLNAYLCKTEVINWQHPDIQALAQQLAAGHETPVVIAQACFEWVRDAIRHSVDYQMNPVTWRASDVLQHKTGYCFAKSHLLAALLRANQIPAGFCYQRLSIDDRGTPYSLHGFNAVYLPITGWHRVDPRGNKPGIDTKFSPPIEHLAYQPKLDEEADFSAILAEPLAIVVTALQTHATWDALLHHLPDMTPNTATTIGLYCY | failed
MGHHHHHHSHSWDFGAFQSSSATDSSMEEIFQHLMAYHQEASKRISSHIPLIIQFFMLQTYGQQLQKAMLQLLQDKDTYSWLLKERSDTSDKRKFLKERLARLTQARRRLAQFPG | failed
MMPRLFLLAGLVSAPPLSLDPEPPSSIKMTYSGIVDAGSTGTRLNIYGFLDGEIRHQGLFTNTSRLASIEDDEEIKTSIRELFAHAEPFYSNIKKMPIGFYGTAGFRTLDKSRSDHVLDLIRSELKDYNLKEAEVINGVDEGKLALMALVLSNRGTDAGHRSLGIVDMGGGSTQISLLERDGKVISESIDLGITVLSLSDPDECKIEGDAEQESCASHIASKLAGVAIRPFLNSVDDLYLLSYFHDEFGKVIRSEKTSMREVKDEFYKRCNLLESHECRRLFYLISFIKSLGIEDTKAIHQIDTNNGINITWASGKGYELNKKYN | failed
MTPEALSFWTQADKPFLFLAACIELTNALAYGPGYVCGLPCSWDGSCSGAQHLCAATRSEDAWKVNLIGNDEVHDLYTIVGNAAKQSMARDTDPMVSTILAYEGDWRKVFKRNTMTTFYGSKGFGMAQQHMDDLMEPLSREVMQKKRAKHPFGQTRKEHHAASRLLAAHAAAAIKGEIPLAIKAMEFIQKLSAMMAHEGKPLEWTTPIGLPWSNRYHDPVTERVNLWMHDHGVRRPFRPVVADGYKKTINKNHSVNGSAPNFVHACDAAHLLRTVNAARAEGITQFALVHDSFGSLPSHAARFRQIIREEFVRMYEEHDVLTEVLEQAKCDLDEHNDKLSALVDMRADLTGKLNIKEVLNAEYAFAYPKLSEPDTKGEYADGKYKTEGTATEDYTERFQEEIQKVADDNFPGKKNVHLPWKETKEGDIAFIFKNPKKKPILTDSRGKPLKEGTVIRGGSKIRIAGVIAAWEKGAKRGVSLWPDAVRVIKLSEGFDANAAFGAAEDGFNADDYEPTNFGNDGEDADNDADDAEAGDDAFKLLEHHHHHH | not failed
MMKAYQREFIEFALEKQVLKFGEFTLKSGRKSPYFFNAGLFNTGRDLARLGRFYAAALVDSGIEFDVLFGPAYKGIPIATTTAVALADHHDVDTPYCFNRKEAKNHGEGGNLVGSKLEGRVMLVDDVITAGTAIRESMELIQANKADLAGVLVAIDRQEKGKGELSAIQEVERDFGCAVISIVSLTDLITYLEQQGNNTEHLEAVKAYRAQYGI | not failed
MRKINIFKGKHNPQRTAIDFFKYVGPGLLVTVGFIDPGNWASNVSAGSDYGYSLLWIVTLSTIMLIILQHNAAHLGIVTGDCLSEAVSKKFKPWLTNIILYSAIGAAISTAMAELLGGAIALNMLFRLPIKIGTLIMLSLVIWMLFSSSYKKLERWIIGFVSIIGLSFIFELLLVKVNWQVAAVSFVSPSFPKNSMPIIMSVLGAVVMPHNLFLHSEIIQSRQWNVEKEDVIKRQLRYEFLDTIISMIVGFAINSAMVLLAASTFFKMHVSVSELSQAQALLKPLLGGSASVVFALALLFSGIASTVTAGMAGGSIFAGIYKEPYDIEDSHTQIGVIITMVLAAVIIFFIKDPFKGLIYSQMILSIQLPITIFTQIYLTSSKKVMGKFSNSLLDRVLLGIIAVIVTALNIALLVSYF | failed
MIIVYTTFPDWESAEKVVKTLLKERLIACANLREHRAFYWWEGKIEEDKEVGAILKTREDLWEELKERIKELHPYDVPAIIRIDVDDVNEDYLKWLIEETKK | not failed
MKLVFKWHDAPLSFMEGVFARGDRRLGAALRRAWELGCRFDGWGDRFDEAAWRTAFEETGIDPAFYHRRREPDEVLPWGHLDFGVTREFLLRELELSRQGAATEDLEHHHHHH | failed
MSDKQRVREQKHAWIYLFNLGFYILPMVLFPYQVWEIAVMVAALLVFIGLYYCCYSVPRQQMLWPILGMYIIACAVTPLNPGSIALFSYAGFFVGFAYNWRVALAAVAGIILTLATFHFGPGTSWDLFLPYGIVIVGTVSIFGRVERLRQQHAEEQERDAEEIERLATSVERERIARDLHDILGHTLSSIILKSDLAKAQLSKQRYDEASEQLVELSEIARESLSQVRQSVSGYKHGGLQLELRRLEQRLTDGGFSTRITGTPPIIDERRETSLVLAITELVTNIIRHSNGQQCLIHFDETANTYCIKVVDNGRCHDVSVGNGLSGVELRIQELGGSMSISTNKGCEVALFLPKLAEQQP | failed
MKKKSLIILSIIVLIFVCITLYLTREHIMVFYKLITNGEVVKSYLERFGPWAAVIFFVFQILQVVIFFIPGEVIQAAGGYIFGALGGTLLSFFGIAVGSAILFYICQKFGKKLVQRFVPKDMYDKLEKILNSPKFKLILVILFFLPGAPKDSLIMVCALSNITIGHFIIFSMIGRIPALVASSFMGANLAEGNIVGVIIIGVIALIACALGVIFRKDVFKYMEKL | failed
GSSGSSGGYFDAHALAMDYRSLGFRECLAEVARYLSIIEGLDASDPLRVRLVSHLNNYASQREASGPSSG | not failed
TMNNEMSDPQIEEFYTIVKELEKFDTFTNFLDVHQPELAIVFGRTKRRVDELTSALISKGYKAEGLHGDITQAKRLEVLKKFKNDQINILVATDVAARGLDISGVSHVYNFDIPQDTESYTHRIGRTGRAGKEGIAVTFVNPIEMDYIRQIEDANGRKMSALRPPHRKEVLQAREDDIKEKVENWMSKESESRLKRISTELLNEYNDVDLVAALLQELVEANDEVEVQLTFEKPLSRKGRNGKPSGSR | failed
MGREIFNRRLPDNYNDFSHSMDNAANGHYFLRVASSNYKRPDGKNVRTVRDVIAEVDQNGVVVDEWRLFDILDPYRDVIMKTLDQGAVCLNIDASQSGHTLSEEDLAALDSSDKFGDIVGSGAGRNWAHVNSVDYDSEDDSIIISSRHQSAIIKIGRDKKVKWILGTPAGWKAPFNAAILTPVDSKGQKIACQDSGCEGDFDWTWTQHTAFKIDSKSKGDILYLSAFDNGDGRGLEQPAMQSMKYSRSVIYKIDQKNKTVQQIWQYGKERGNEWFSPVTSITEYQTDKNSVFVYSATAGGAFDLSVGAFTSLPNPYLEEFKWGEKEPAVEMQIHGARGYQAMPFSLTKALTELEHHHHHH | failed
MKISQLLSLDTIKLNLAASNKNEVIDQLVDVLWDAGKLTDKNLYKEEILKRESLSSTGIGERIAIPHAKTKAVKNASLALGIYKYGVDYDSLDGEPVNIVFMIAAPAGANDEHLETLSRLSVLLMNPDFKNGLLNAKTPEEVISLLDKFEENEESDETQASNEAENNSNKKYILAVTACPTGIAHTYMAADSLNKTAKEMDVHIKVETNGSTGVKNRLTQEDIDKADGIIVAADKQVEMARFNGKKVVIVPVVQAMKRPQELINEALSGSAPVYSHSGDSSNQSSGKTERRGFYKHLMNGVSNMLPFVVGGGILIAISFMFGIHSAEINDPTFNPIAKLLKDIGGGNAFFLMIPVLAGFIGSSIADRPGFAPAMVGGLIAANSGSGFLGGLIAGFLGGYVVVLLKKIFSKLPQSLEGIKPVLLYPLFGILITGALMYLVIVGPVTALNNNIAIWLQNMGTGNLVLLGIVLGGMMAIDMGGPINKAAFTFGIAMIASGNYYPHAAIMAGGMVPPLATALATTFFKNKFTKDERDAGTTNYIMGLTFITEGAIPFAAADPFRVIPACVIGSAIAGGLSMVFKIGLPAPHGGIFVVPVVEGNPLLYLLSILVGSIVAALIIGFLKKPVNEINK | failed
MRYGLRVEAITLWILGGLASLEAIPKEWNRELVIALAGPAVSILTGLACYAALFALPASAQVTLFVIGWLAVTNIFLAVFNMLPAFPMDGGRVLRALLARTRPYATATRIAARIGTGFAVLFAVVGVLSFSPLLLLLALFVYGAASSESRTVALAALLDGLSVDDVASPLDATIEANASVEDLVDRMFADRRTEFAVTRGGDVVGVVTVDDFRELSKAEREADTVADLMEADLPRFPAAMAAFDALVELDTARASAAFVDGPEGTRVVSRDDFSSAMEMRRLVDSPEPF | failed
